Laboratory results published in patent US20210347914A1.

Tests used:
[1] = molecular target: GFAP purified from human brain (human) (UniProt P14136); assay: chemiluminescent sandwich ELISA; GFAP-2 capture, HRP-GFAP-6 detection; GFAP standard 10 pg/ml
[2] = molecular target: GFAP purified from human brain (human) (UniProt P14136); assay: chemiluminescent sandwich ELISA; GFAP-2 capture, HRP-GFAP-6 detection; GFAP standard 640 pg/ml
[3] = molecular target: GFAP purified from human brain (human) (UniProt P14136); assay: chemiluminescent sandwich ELISA; GFAP-2 capture, HRP-GFAP-6 detection; GFAP standard 80 pg/ml
[4] = molecular target: GFAP purified from human brain (human) (UniProt P14136); assay: chemiluminescent sandwich ELISA; GFAP-2 capture, HRP-GFAP-6 detection; GFAP standard 40 pg/ml
[5] = molecular target: GFAP purified from human brain (human) (UniProt P14136); assay: chemiluminescent sandwich ELISA; GFAP-2 capture, HRP-GFAP-6 detection; GFAP standard 160 pg/ml
[6] = molecular target: GFAP purified from human brain (human) (UniProt P14136); assay: chemiluminescent sandwich ELISA; GFAP-2 capture, HRP-GFAP-6 detection; GFAP standard 20 pg/ml
[7] = molecular target: GFAP purified from human brain (human) (UniProt P14136); assay: chemiluminescent sandwich ELISA; GFAP-2 capture, HRP-GFAP-6 detection; GFAP standard 320 pg/ml

GFAP purified from human brain (human), sequence (P14136 whole entry): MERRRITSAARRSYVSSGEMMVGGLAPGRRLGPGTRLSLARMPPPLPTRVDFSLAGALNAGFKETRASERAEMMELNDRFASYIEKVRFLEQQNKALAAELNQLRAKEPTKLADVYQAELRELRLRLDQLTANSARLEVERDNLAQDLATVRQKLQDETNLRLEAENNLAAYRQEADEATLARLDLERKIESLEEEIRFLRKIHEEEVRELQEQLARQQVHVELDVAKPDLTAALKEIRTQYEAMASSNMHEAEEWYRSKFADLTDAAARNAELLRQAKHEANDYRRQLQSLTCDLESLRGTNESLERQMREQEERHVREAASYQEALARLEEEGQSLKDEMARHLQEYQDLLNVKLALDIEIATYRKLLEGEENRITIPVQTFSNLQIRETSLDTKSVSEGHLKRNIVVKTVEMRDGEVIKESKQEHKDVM

Relative Light Unit (rlu) [1]: 3640 rlu
Relative Light Unit (rlu) [2]: 1.12e+06 rlu
Relative Light Unit (rlu) [3]: 72700 rlu
Relative Light Unit (rlu) [4]: 22700 rlu
Relative Light Unit (rlu) [5]: 208000 rlu
Relative Light Unit (rlu) [6]: 7420 rlu
Relative Light Unit (rlu) [7]: 487000 rlu
B1: GFAP-6 (antibody, V domains shown)
VH: EVQLQQSGAEFVKPGASVKLSCTASGFNIKDTDMHWVRQRPEQGLESIGLIDPAIGNTKYDPKFQGKATITADTSSNAAYLQLSSLTSEDTAVYYCARSDRYLAWFAYWGQGTLVTVSA
VL: DIVMTQSPATLSVTPGDRVSLSCRASQSISDFLHWYQQKSHGSPRLLIKYSSQSISGIPSRFSGSGSGSDFTLSINSVEPEDVGVYYCQNGHTFPYTFGGGTKLEIK
